From a protein production outcome set (Wang et al. 2014)

Assay: label from the status in PepcDB records

| Sequence | protein production |
| --- | --- |
| MKRFIVGIDLGTSNTVVAYVEAGGDAIRVFDVDQLVAPGEVGARPLLPSARYHPAPGEFAPGELQLPWRDAEAGDAADAGDAPPAVIGTLARTLGAQVPGRLVTSAKSWLSHASVDRLAPILPWGAADAGGKVSPVAASASYLAHVRAAWNRRFPDAPLEQQDVVLTVPASFDDGARSLTLEAARLAKLPALRLLEEPQAAFYDWLFHHRDSLREELARTRLVLVCDVGGGTTDLTLIKVHAEDGEPQLTRIGVGDHLMLGGDNMDLALARVAEARLARDGGARLSAASLSQLVERCRAAKERLLDANPPDSVGVTLLGAGARLVGGARKTELGRAEVEQIVVDGFFPAGGPDDLPRRSRAALVEFGLPYAADAAVTRHVAAFLHRLAAQSRDALGAAGASDRALPVPDTLLLNGGVFRSRALAERVAGVLGDWRGQPLHVLRNDHPDVAVARGAVAYGLARAGRAPRIGGGSPRSYFLVVDDGAHASRGVCVLPRGTAEGHDVRLDDRVFALRLGHPVRFHLASTVADHAWRAGELADLGAGGFVRLPPVATVVRRQDAGGASERLVKLTTSLTEVGTLDMRCIATDDSSQRWQLEFQLRREPAGGGDAADASRHPSLDEAIELIDRSFGARLANVDPKEVRRLRGQLEQLLGARDAWDIALLRELFGALWARAGRRRRSADHERVWLNLAGYCVRPGFGHPLDDWRVAQLWTLFDDGIQYVNDAQVWSEWWTLWRRAAGGLDDDAQREALDAMAWLQEAARAKRPKLPFDAAKIGDMDIVRLSASLERVPVERKIALGEDLLARLRRPAENHQCWWAIGRIGARRPLYGSAHGVVPPDVAGRWLDAILAVDWKKVEPAAFAAAQIARMTGDRSSDVAADVRERVVRRLAAMNASDAWVRMVSEVVALDSADTGRAFGESLPAGLKLVAD | failed |
| MKRFIVRAVLILVSFVLLIQLWIFCSLAWWRTHPVETTMFMRLDYWSDSSKPIQQQWRDYDEISDNFKKAVVAAEDGKFVHHHGFDWEGIQYALEKNEKSGEVVNGGSTISQQLAKNLFLYNQRSLIRKGQEAIATWMMERMWSKQRILEVYMNSVQFGDHLYGVEAASHYYFHRSAQNLTRDQAAFLAALLPNPKYYQENRNDPRFKFKKRFTLKYMRYSEIP | failed |
| MKRFNVLKYIRTTKANIQTIAMPLTTKPLSLKINAALFDVDGTIIISQPAIAAFWRDFGKDKPYFDAEHVIHISHGWRTYDAIAKFAPDFADEEYVNKLEGEIPEKYGEHSIEVPGAVKLCNALNALPKEKWAVATSGTRDMAKKWFDILKIKRPEYFITANDVKQGKPHPEPYLKGRNGLGFPINEQDPSKSKVVVFEDAPAGIAAGKAAGCKIVGIATTFDLDFLKEKGCDIIVKNHESIRVGEYNAETDEVELIFDDYLYAKDDLLKW | not failed |
| MKRGRRASPAAGQHFKVLACEPCVSRRGIYTTLSLQLQKRALQGLQGGAGRRDLSLDRKGFHGLFLRCPFAALRCCQLRLLLGELLLSIFNLLLYFLDRIIEGRLARTANAATTTCCTSLAAFGGSLIRAFLCLSGGRRSSSRLGCFGVGRLDRDRQRAGVAVQCRSIDGSHDGLLGF | failed |
| MKRKKIKNQLLVLTSILVLLSLEVAPVVTLAAELPSSSLQTALSSETTITSEEKVTETTETTVATSTTSTSSSSSESSSSTDTTTESTSQSTTETTTTNTSSETKKEPTEPTVSSEITQPVEQSQPPQVPVTKQEPEEPIQVPEANNNFVEENQAVSLNPSLKVDEIASSNLKGYELPLLSSFGEKKRAVVVAEALRHVGKTKKEFNLTEQALTSSFLAQKIYQQLFKIDIGSTPQEQMTFGKVRSIEEAEPGDLIFWQTAEGKTLQNGVYLGQGKYLIAAAESDSKEKPEVIAQLENIYTAKQQPDSKEEKRLVVTNPFKEFILTEYGKEVLATYGASFEMQKSEQTTAFIKKIGETARELGEKYDVFASVMIAQAILESGSGESQLAKEPYYNLFGVKGSFQGNSVSFSTKEADQRGQLYTISAGFRDYGGYNDSLQDYVQLLRQGIDGNQDFYKPAWRSEAKNYLQATRFLTGKYATDKQYDNKLNSLIAVYNLTQFDLPKTVDGLIIQSKNKLSEAEQQQMHFPVYDGINYNRSGSYPVGQCTWYVYNRFKQLGTSVDEFMGNGSDWGRKGRALGYQVSSLPKAGRAISFQPGVAGADNQYGHVAFVEAVTSDGIIISESNVINDQTISYRVLPNVIAYSSGVTYIGA | failed |
| MKRLPLLAALPLLCASALSAQPLMSVGYFNGGGDVTAGPGGDIDKLDVRQITHLNYSFGLIYNDEKDETNAALKDPAHLHEIWLSPKVQADLQKLPALRKQNPDLKVLLSVGGWGARGFSGAAATAESRAVFIRSAQKIIQQYGLDGIDLDWEFPVNGAWGLVASQPADRDNFTALLKSLREAVGEQKLVTIAVGANAESPKSWVDVKAVAPVLNYINLMTYDMAYGTQYFNSNLYDSSHWPTVAAADKYSADFVVNNYLAAGLKPSQMNLGIGFYGRVPKRAVEPGIDWTKADAQNNPVTQPYFGPQQIALFASLGYDLSKDTYVKYNDIVGKLLNDPQKRFTEHWDDEAKVPWLSVQSAEGKPLFALSYENPRSVAIKADYIKAKGLAGAMFWEYGADDQNQLARQLAESLGIKH | not failed |
| MKRLYKAMFIVFILLVLMFASQQGLFEHVTNSNWVAHFIKAEGNYALMALLAVGALFTAVGGPRQVIAFVFGFALGGIYGGLFSTLAALLGCVLVFYTARLTIRSSLQRRFGHRLQKFEALIIHRTWLKVLMIRLLPVGSNLLTNLFAGATHISPGGFLFGSMLGYLPQMLIFSFAGAGIGLADHNQLWISIGLFIVSSLIGAYLYRSSLRKQVDELEH | failed |
| MKRMSSLEYHFGVKVRFYPSNNQKKMIKQNYDAQRFVYNQYVGAGRLIYHVKKANRIKQLSSGLPFVMQGMSEYENQQALRMIDTQDLISKPKNIRDKYDFLRVEDIDSLAIANAIQNYHKAWRNYHKIGYGIPTFHKKRSSWSYQTNCQYIKQDAAYLDNGTVRFIDAKHVKLPKLGIVRIAGLRKLIKKRLFNRIPIRIGTASIKKTADDQFYLSLQLGSDIAFVKDYAKTQKQIGIDLNLDNFLTDSNGAMVANPRFYRRAKKKLAHAQRILSRRERRAKKEGRSLCESKNYQKQRLAVAKLHDRIRRQRQDFLQVLSTALIKNHDLVVAEELRSKNLLKNHALAQSISDAGWRSFLTMLEYKADLHGKKFVTIDPKFTTQRCHNCGNIMGQNGYKKLTLKDRKWTCPVCGSYHIRDWNASVNILEKSKGIWKNPKIKKRSK | failed |
| MKRNTRLLFVVPAFFAIFAMACACQGGTAGKSFTNSTGSPGEMMLVMDDQYLGSPVGEAIYEAMTEVAPALNQNEPIMAVSRVSEKDFTGFLRYIRNVLQIDINPDIFTKTSLKYGYDQWANGQLVVLINSPATDSLTAYVESNKSAIQNLFIRHELFLFGQLWQKDCSADADQRVQRMFGYHINVPADILSHKEGKDFLWMSNNQMRRRKDFLVYTFPYRGASDLGLDRMVEVRDSVLKANIEGSDAGSYPVTERMLLKHRYVYPGDQKRGEVHGIWRMEGGQMMSGPFVAQAFVDGDRVVVVEGFVYHPNEKKRDLMRQMEAALYSMRPKAEKEFDPSIIRKARWTTLK | failed |
| MKRPGAIPTVQIDNERVKVTEWRFPPGGETGWHRHSMDYVVVPMTTGPLLLETPEGSVTSQLTRGVSYTRPEGVEHNVINPSDTEFVFVEIEIKAA | not failed |
| MKRRSVLLSGVALSGTALANDSIFFSPLKYLGAEQQRSIDASRSLLDNLIPPSLPQYDNLAGKLARRAVLTSKKLVYVWTENFGNVKGVPMARSVPLGELPNVDWLLKTAGVIVELIVNFVASLPASAAAQFERIATGLSGDLEAARQVHEALLEEAKNDPAAAGSLLLRFTELQTRVIAILTRVGLLVDDILKSASNLVTQRGQGDGLNRFRAVFGTLRLPEVADSFRDDEAFAYWRVAGPNPLLIRRVDALPANFPLGEEQFRRVMGADDSLLEAAASRRLYLLDYAELGKLAPSGAVDKLLTGTGFAYAPIALFALGKDRARLLPVAIQCGQDPATHPMFVRPAESESDLYWGWQMAKTVVQVAEENYHEMFVHLAQTHLVSEAFCLATQRTLAPSHPLHVLLAPHFEGTLFINEGAARILLPSAGFIDVMFAAPIQDTQATAGGNRLGFDFYRGMLPESLKARNVDDPLALPDYPYRDDGLLVWNAIRQWAADYVAVYYASDGDVTADVELAAWVGEVIGSGKVAGFRPITGRSQLVEVLTMVIFTASAQHAAVNFPQPSMMTYAPAICAMSAAPAPDSPSGKSEADWLKMMPPTLVALEKVNIYHLLGSVYHGRLGDYRQTGFPYAPVFSDRRVTASGGPLERFQARLKEVEATIRTRNQARRRPYEYLLPSRIPASTNI | failed |
| MKRSASLKEDVFLKSKVHFWTLEVLMVVAIIFICTKISFLFQPIGIFISTLFFPILIALFLYFIFNPVLVFLEEKKVPRNLAILLLYLFIITLTAVGVGVVVPTISQQLMDLVKNMPGYIKEGKLYIQDLSHHRLFEWLSTQNYVSIETIEKNAIEYLKDIPNTITSSATALFGIITNVALVIFTVPFILFYMFKDGHAFPGKAVSLLPESYREEGLRIIKETNETLSAYIQGQALVCIFVGAFTFIGYLIIDLPYAFVLGIIAAFTNIIPNLGPFIGAAPAVIVGLFVSPMQALYVIIIVTIVQQFESNIISPRIMSSKLNIHPLTIIILILGVGNFAGIIGMILAVPVYAVTKTVVSNLVRLFKTKRSNRK | failed |
| MKRSEKKSMSSALKNGIMERTQPEKVVQMQGTADLSTSKLGTKKYWDELYALELENFRRNPQDTGDCWFSDSDAEQKMIDFLVDNIGAYRISENASVVDLGTGNGHMLFELHQTEFQGKLVGIDYSEESVKLASNIAEATGVDNFISFQQADIFSGDWKPGKYDIVLDKGTLDAISLSGMKINGKLDVVDVYAGVVERILKKDGIFLITSCNFTQDELVKIIETDNLKMWKTIKYPVFQFGGVQGATICSVAFVKQN | failed |
| MKRSILNTLLNVLAIIFIVFLMIKVSVPMGSILLLSFIIFKLTINKHLIYMFKGAKKLRANNLEEALSLYRKAALCNSSNVKAIKTYVFLELKIGSYTEALETLKSIVSKRKFLPEDANQLDLLQAILYWKLNDIKTSLQILDDLKANNFNSLDFYEVYGYVLIQDEDFEKAISISNEGLKVDELSQIIRANLGEIFYKIGDIKKACFYFDELIDECVNFSEPYYFMGIISKEKEDFYKAKEFLNKALKYDESILSNLSKNDIENALISINH | failed |
| MKRSNTVRLVVSKEQHEVLKRLGIATAKCWNEVNWLRMKQYKEGKRVDFGITEKAVYEKYKSVLRVNAQQVARKNAEDWRSFFSLTREKKEGKLPSWFKPRPPGYWKDGRLIVIIRNDRYTVDERNRVVYLKDFNLSLKFKGRLKWHGKQGRLEIIYDEARKIWYAHIPVEVETEKVKEGIKASIDLGIVNLATVYVEDGSWYLFKGGSALSHYENYSKRITIVQKTLHRHRQRRSRRLKLLHEKRSRFLKHALNSMVRRIMEILREKNVGEVVVGYPKEIAKHHGNKLTVNFWNYSYIIKRLEDIGEELGIKVITVDEAYTSKTCSLCGEAHEDGRVKRGLFVCPRTRKAINADLNGAINILHIPESRGSEGNFHRGIGVIGLKTQPVTLSDLSKIKNHYNYSISDYTILHYIQPLEHHHHHH | not failed |
| MKRSSPVILVSEDEYGKFDESTNSILVKGKMHHLGISRVIEPGDELIVSGKSFIVSDFSPMYFGRVIRRNTQIISEIDASYIIMRCGLRPGMDILEVGVGSGNMSSYILYALNGKGTLTVVERDEDNLKKAMDNLSEFYDIGNVRTSRSDIADFISDQMYDAVIADIPDPWNHVQKIASMMKPGSVATFYLPNFDQSEKTVLSLSASGMHHLETVELMKRRILVREGATRPASDDLTHTAFITFAIKKSGMVYRI | not failed |
| MKRTFKMALIASLAVGGSYVLYGSQNKEELSDLALSNVEALTLGTKDCMYQRNSRCYELVVGPPGEPVIIETSEEANWVNRYTIPE | failed |
| MKRTHLASFSNRDKTQEEEGEDGNGDNRVIMNHYKNYEAGLIPWPPKNYTCSFCRREFRSAQALGGHMNVHRRDRAKLRQIPSWLFEPHHHTPIANPNPNFSSSSSSSTTTAHLEPSLTNQRSKTTPFPSARFDLLDSTTSYGGLMMDREKNKSNVCSREIKKSAIDACHSVRCEISRGDLMNKKDDQVMGLELGMSLRNPNQVLDLELRLGYL | not failed |
